Measured values taken from paper PMC6675082.

Target: NpDps4 (Dps4 from Nostoc punctiforme ATCC 29133) (Nostoc punctiforme ATCC 29133)
Assay: crystal structure; sitting-drop vapour diffusion, 25% SOKALAN HP 66, 0.1 M HEPES pH 7.0, 0.2 M NaOAc, room temperature; metal-free, Fe2+-soaked and Zn2+-soaked crystals; four molecules in the asymmetric unit, a third of the dodecameric hollow sphere

stoichiometry N: 12
Substance: NpDps4 (Dps4 from Nostoc punctiforme ATCC 29133) (natural protein)
